Source: the supplement of paper PMC9732359
± gives the uncertainty stated by the source.

Experiment: protein stability index of a GFP-peptide fusion (yeast GPS) (PSI 1-4); higher = more stable; sorted into four equal gates, so the index is relative within each strain
In short: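 Plasmids in a pooled yeast library fused tiled 17-residue yeast protein peptides downstream of GFP and also expressed Cherry. Mid-log cultures grown without leucine were sorted into four equal gates by GFP/Cherry fluorescence ratio. Each gate's plasmids were PCR-amplified and Illumina-sequenced, and reads were matched to strains by barcodes. The protein stability index is derived by multiplying each gate's read frequency by its gate number and summing the results.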

| Sequence | protein stability index (doa10∆) | protein stability index (pdr5∆) | protein stability index (san1∆) | protein stability index (ubr1∆) |
| --- | --- | --- | --- | --- |
| LTNDTFEKKLSIIKAKL [YML103C/NUP188] | 2.8 ± 0.11 | 2.99 ± 0.23 | 2.43 ± 0.21 | 3.3 ± 0.19 |
| KLRAARAKAMKFADGFL [RPS3] | 3.3 ± 0.17 | 3.03 ± 0.14 | 2.44 ± 0.29 | 3.16 ± 0.065 |
| NNSNNNNIIRIQQLISQ [SNF11] | 2.25 ± 0.06 | 2.39 ± 0.075 | 2.54 ± 0.08 | 2.69 ± 0.046 |
| ARVTGGMKVKADRDESS [RPS14B] | 2.5 ± 0.072 | 2.92 ± 0.067 | 3.12 ± 0.05 | 3.03 ± 0.043 |
| SQLKKTKAQQKTAEQIA [RPL7B] | 2.9 ± 0.085 | 2.92 ± 0.11 | 2.95 ± 0.067 | 2.86 ± 0.048 |
| VAIDQDKITLHDEKTLA [SIR4] | 2.01 ± 0.097 | 2.22 ± 0.096 | 2.26 ± 0.17 | 2.71 ± 0.08 |
| TKLYFDVNEKIRFRIER [RPC25] | 2.97 ± 0.11 | 2.92 ± 0.097 | 2.81 ± 0.084 | 2.92 ± 0.17 |
| QSSGKLKEYLDLVARTA [YDL116W/NUP84] | 2.63 ± 0.23 | 2.88 ± 0.16 | 3.01 ± 0.099 | 2.74 ± 0.15 |
| LKLNTSLPSKLTKYKEM [SRP68] | 1.77 ± 0.075 | 1.74 ± 0.065 | 1.58 ± 0.1 | 1.95 ± 0.053 |
| PISISNAPTFNPKYDTS [YAR002W/NUP60] | 3.03 ± 0.076 | 3.08 ± 0.068 | 2.71 ± 0.059 | 3.07 ± 0.06 |
| VADEEANIELTWAEGTF [RPC37] | 2.06 ± 0.067 | 2.98 ± 0.087 | 1.81 ± 0.097 | 2.52 ± 0.071 |
| ETLENNIVSVLTAGVNS [RPN11] | 2.5 ± 0.1 | 2.65 ± 0.076 | 2.24 ± 0.11 | 2.57 ± 0.09 |
| GFVRNSFFSGLSPPEFL [RPO31] | 2.99 ± 0.077 | 2.95 ± 0.079 | 3.11 ± 0.08 | 3.13 ± 0.052 |
| REASKDNVDFILSNVDL [RPB3] | 3.49 ± 0.1 | 3.3 ± 0.085 | 3.38 ± 0.061 | 3.32 ± 0.073 |
| PVKLDENSANSTVASAL [SIR4] | 2.9 ± 0.13 | 3.09 ± 0.081 | 2.76 ± 0.09 | 2.9 ± 0.074 |
| DRKHVAALRTVKSLVDN [RPL9B] |  | 2.83 ± 0.22 | 2.83 ± 0.14 |  |
| MKMDKSPTESYSDIGGL [RPT2] | 3.21 ± 0.096 | 3.4 ± 0.096 | 3.38 ± 0.055 | 3.05 ± 0.059 |
| PNISHSNIDYQTLLANS [SNF2] | 3.33 ± 0.17 | 2.7 ± 0.18 | 2.58 ± 0.22 | 2.82 ± 0.11 |
| VAASIIPFPDHNQSPRN [RPB2] | 2.37 ± 0.09 | 2.21 ± 0.076 | 2.33 ± 0.12 | 2.63 ± 0.078 |
| LQPFYSQPTAAGGPDMT [DSN1] | 1.54 ± 0.049 | 1.51 ± 0.047 | 1.88 ± 0.077 | 1.62 ± 0.039 |

| Sequence | protein stability index (doa10∆) | protein stability index (pdr5∆) | protein stability index (san1∆) | protein stability index (ubr1∆) |
| --- | --- | --- | --- | --- |
| QVMEEKLDENNAQLSCI [PUP2] | 3.31 ± 0.086 | 2.69 ± 0.27 | 2.86 ± 0.19 | 3.17 ± 0.17 |
| FEGWGHEYIRHLALEIG [RPN1] | 2.18 ± 0.098 | 2.06 ± 0.071 | 2.41 ± 0.12 | 2.1 ± 0.083 |
| FDNYQRNNFLAENSHTQ [PUP1] | 3.3 ± 0.081 | 3.26 ± 0.075 | 3.17 ± 0.058 | 3.19 ± 0.044 |
| DSTPEEVSCKLLETITY [YML103C/NUP188] | 2.47 ± 0.077 | 2.82 ± 0.086 | 2.47 ± 0.075 | 2.79 ± 0.092 |
| AETKSYDSRGVGEMKLL [YLR335W/NUP2] | 1.94 ± 0.064 | 2.1 ± 0.11 | 2.25 ± 0.097 | 2.44 ± 0.079 |
| FKKAAPSPISHVAEIRS [RPB2] | 1.92 ± 0.051 | 1.94 ± 0.046 | 1.77 ± 0.058 | 1.81 ± 0.036 |
| PAWRVWLNFLRGTIPLL [PRP8] | 2.38 ± 0.089 | 1.88 ± 0.071 | 1.33 ± 0.1 | 2.96 ± 0.083 |
| NPPYSQCIVYPNCLFIL [SOH1] | 1.76 ± 0.038 | 2.06 ± 0.044 | 1.86 ± 0.06 | 1.86 ± 0.035 |
| EEESLHVFQYANRPRLV [RPC37] | 1.36 ± 0.058 | 1.66 ± 0.081 | 1.79 ± 0.13 | 2.21 ± 0.047 |
| KSGIPEFTPADPNLSFE [SSN2] | 2.96 ± 0.091 | 3.04 ± 0.055 | 2.78 ± 0.054 | 3.25 ± 0.062 |
| VHPRKSYKMNSSAADIT [PRP8] | 2.77 ± 0.079 | 2.88 ± 0.075 | 2.88 ± 0.053 | 2.74 ± 0.058 |
| ASLKKMEETEQKKIQIN [SMC3] | 2.33 ± 0.22 | 1.82 ± 0.076 | 3.1 ± 0.13 | 2.23 ± 0.11 |
| ILRDYGPQEAANAMNRM [RPO31] |  | 1.83 ± 0.26 | 2.86 ± 0.22 |  |
| RITNSFYSTNSQYFKFK [RPN9] | 2.5 ± 0.1 | 2.38 ± 0.076 | 2.42 ± 0.086 | 2.83 ± 0.16 |
| ITSFDQDVDDAHAIDQM [POP8] | 1.55 ± 0.064 | 1.23 ± 0.061 | 1.15 ± 0.093 | 1.08 ± 0.11 |
| AHRVRDLMDEELRKHAQ [SKI6] | 3.14 ± 0.14 | 3.39 ± 0.12 | 2.83 ± 0.12 | 3.29 ± 0.064 |
| SSDDRVKVLAATNRVDV [RPT5] | 2.66 ± 0.18 | 2.95 ± 0.26 | 2.88 ± 0.15 |  |
| ENVKIINYLLTLAITTV [RPN2] | 2.95 ± 0.06 | 3.03 ± 0.057 | 2.56 ± 0.065 | 2.99 ± 0.055 |
| YVKDARKDTVSREVLRY [RPC40] | 3.64 ± 0.13 | 3.2 ± 0.14 | 3.33 ± 0.071 | 3.21 ± 0.11 |
| LIGRPPLLVPGMTPCTV [FAS1] | 1.32 ± 0.071 | 1.82 ± 0.079 | 1.81 ± 0.11 | 2.15 ± 0.06 |
